The supplement of paper PMC10724198
± gives the standard deviation of the averaged measurements.

How the values were obtained:
Saccharomyces cerevisiae [1] = assay: protein stability index of tFT-peptide fusion (C-terminal peptide) (PSI (0-1 scale)); higher = more stable (slower turnover)
Description: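 MPS profiling in S. cerevisiae of the tFT-X12 degron library: putative degron peptides plus stable controls, 12 aa, fused to the C-terminus of a sfGFP-mCherry timer. Cells are FACS-sorted into 8 mCherry/sfGFP bins and deep-sequenced. PSI runs from 0 (unstable) to 1 (stable). Backgrounds are wild type, das1Δ and doa10Δ at 30 °C, and wild type, das1Δ, cdc34-1 and cdc53-1 at 37 °C; 2-3 technical replicates each.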

Saccharomyces cerevisiae [2] = assay: as above; details: genetic background: wild type; temperature: 30 C
[3] = genetic background: cdc34-1, temperature: 37 C
[4] = genetic background: cdc53-1, temperature: 37 C
[5] = genetic background: das1 deletion, temperature: 30 C
[6] = genetic background: das1 deletion, temperature: 37 C
[7] = genetic background: doa10 deletion, temperature: 30 C
[8] = genetic background: wild type, temperature: 30 C
[9] = genetic background: wild type, temperature: 37 C
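Further: PSI is a weighted mean of sequencing reads over stability bins, variants kept only with over 10 reads, mCherry proximal and sfGFP distal, peptide attached via GGGS linker.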

Row | Sequence | protein stability index (Saccharomyces cerevisiae [1]; [3]) | protein stability index (Saccharomyces cerevisiae [1]; [4]) | protein stability index (Saccharomyces cerevisiae [1]; [5]) | protein stability index (Saccharomyces cerevisiae [1]; [6]) | protein stability index (Saccharomyces cerevisiae [1]; [7]) | protein stability index (Saccharomyces cerevisiae [1]; [8]) | protein stability index (Saccharomyces cerevisiae [1]; [9]) | protein stability index (Saccharomyces cerevisiae [2])
1 | RLFYRLSFVYFL | 0.398 ± 0.025 | 0.4469 ± 0.0038 | 0.378 ± 0.029 | 0.514 ± 0.017 | 0.169 ± 0.0068 | 0.175 ± 0.016 | 0.243 ± 0.015 | 0.2655 ± 0.0014
2 | WFYLLFVLFGLV | 0.56 ± 0.026 | 0.614 ± 0.012 | 0.438 ± 0.033 | 0.542 ± 0.0065 | 0.409 ± 0.027 | 0.417 ± 0.017 | 0.51 ± 0.024 | 0.426 ± 0.023
3 | KYCPCIPLLIAL | 0.406 ± 0.0064 | 0.381 ± 0.012 | 0.339 ± 0.036 | 0.5 ± 0.012 | 0.387 ± 0.013 | 0.329 ± 0.033 | 0.443 ± 0.012 | 0.429 ± 0.0047
4 | SGPCSPRNLRRL | 0.699 ± 0.032 | 0.754 ± 0.012 | 0.621 ± 0.017 | 0.736 ± 0.019 | 0.651 ± 0.015 | 0.647 ± 0.03 | 0.719 ± 0.02 | 0.281 ± 0.018
5 | GKHILLISLNIT | 0.281 ± 0.024 | 0.395 ± 0.067 | 0.252 ± 0.045 | 0.5 ± 0.013 | 0.246 ± 0.022 | 0.251 ± 0.046 | 0.455 ± 0.02 | 0.351 ± 0.0065
6 | FLAFLEPRVCCA | 0.23 ± 0.037 | 0.231 ± 0.036 | 0.246 ± 0.019 | 0.354 ± 0.0058 | 0.21 ± 0.0091 | 0.228 ± 0.031 | 0.33 ± 0.029 | 0.343 ± 0.013
7 | DVYIVLFIIKHG | 0.309 ± 0.052 | 0.395 ± 0.022 | 0.261 ± 0.052 | 0.4415 ± 0.0025 | 0.173 ± 0.0021 | 0.175 ± 0.034 | 0.3 ± 0.0092 | 0.241 ± 0.055
8 | LVFFAYLIRGAL | 0.344 ± 0.0086 | 0.462 ± 0.011 | 0.364 ± 0.031 | 0.518 ± 0.015 | 0.0526 ± 0.0068 | 0.0682 ± 0.0051 | 0.0558 ± 0.0015 | 0.108 ± 0.036
9 | RCIRRWPYILKL | 0.576 ± 0.017 | 0.667 ± 0.0087 | 0.615 ± 0.038 | 0.758 ± 0.059 | 0.214 ± 0.0092 | 0.206 ± 0.042 | 0.285 ± 0.031 | 0.273 ± 0.019
10 | FLFLFLFPFSLI | 0.525 ± 0.047 | 0.571 ± 0.0084 | 0.476 ± 0.016 | 0.567 ± 0.009 | 0.393 ± 0.0097 | 0.386 ± 0.0079 | 0.4997 ± 0.0009 | 0.431 ± 0.0054
11 | KKKTKYSKDKLC | 0.607 ± 0.03 | 0.696 ± 0.025 | 0.662 ± 0.036 | 0.723 ± 0.021 | 0.191 ± 0.028 | 0.217 ± 0.013 | 0.456 ± 0.04 | 0.343 ± 0.035
12 | CREFLQSMLFYC | 0.688 ± 0.043 | 0.744 ± 0.017 | 0.645 ± 0.044 | 0.751 ± 0.018 | 0.241 ± 0.016 | 0.281 ± 0.021 | 0.56 ± 0.02 | 0.373 ± 0.1
13 | CTYSLSVLFVFF | 0.396 ± 0.014 | 0.51 ± 0.067 | 0.3 ± 0.03 | 0.51 ± 0.056 | 0.252 ± 0.012 | 0.307 ± 0.035 | 0.4462 ± 0.0024 | 0.382 ± 0.024
14 | DRQMRCVHIHYL | 0.647 ± 0.041 | 0.715 ± 0.028 | 0.646 ± 0.029 | 0.697 ± 0.011 | 0.275 ± 0.016 | 0.301 ± 0.015 | 0.532 ± 0.0088 | 0.412 ± 0.021
15 | PGVWVVILRWWV | 0.0876 ± 0.044 | 0.179 ± 0.011 | 0.123 ± 0.02 | 0.243 ± 0.035 | 0.0879 ± 0.0095 | 0.0841 ± 0.034 | 0.182 ± 0.011 | 0.152 ± 0.01
16 | CYCSIGCLIIFS | 0.2261 ± 0.0021 | 0.374 ± 0.023 | 0.238 ± 0.033 | 0.446 ± 0.0093 | 0.206 ± 0.0053 | 0.22 ± 0.023 | 0.4089 ± 0.003 | 0.378 ± 0.074
17 | VRLSQVNRLICT | 0.554 ± 0.022 | 0.566 ± 0.065 | 0.437 ± 0.024 | 0.585 ± 0.021 | 0.394 ± 0.019 | 0.426 ± 0.0098 | 0.573 ± 0.017 | 0.524 ± 0.052
18 | AWVLISNRRRIM | 0.62 ± 0.071 | 0.747 ± 0.011 | 0.648 ± 0.033 | 0.745 ± 0.025 | 0.187 ± 0.0092 | 0.216 ± 0.029 | 0.502 ± 0.095 | 0.262 ± 0.065
19 | RAEASFFLPKVG | 0.675 ± 0.046 | 0.711 ± 0.0076 | 0.668 ± 0.033 | 0.732 ± 0.016 | 0.41 ± 0.013 | 0.446 ± 0.01 | 0.6398 ± 0.0037 | 0.435 ± 0.07
20 | GLCFRVCIWVFV | 0.176 ± 0.0029 | 0.284 ± 0.024 | 0.206 ± 0.025 | 0.364 ± 0.0058 | 0.103 ± 0.016 | 0.125 ± 0.025 | 0.218 ± 0.0086 | 0.195 ± 0.041

Row | Sequence | protein stability index (Saccharomyces cerevisiae [1]; [3]) | protein stability index (Saccharomyces cerevisiae [1]; [4]) | protein stability index (Saccharomyces cerevisiae [1]; [5]) | protein stability index (Saccharomyces cerevisiae [1]; [6]) | protein stability index (Saccharomyces cerevisiae [1]; [7]) | protein stability index (Saccharomyces cerevisiae [1]; [8]) | protein stability index (Saccharomyces cerevisiae [1]; [9]) | protein stability index (Saccharomyces cerevisiae [2])
21 | SLIFLLVLILSL | 0.412 ± 0.023 | 0.51 ± 0.05 | 0.369 ± 0.038 | 0.493 ± 0.029 | 0.364 ± 0.048 | 0.347 ± 0.036 | 0.483 ± 0.046 | 0.363 ± 0.074
22 | IIFWMWVIIRVY | 0.121 ± 0.11 | 0.0686 ± 0.034 | 0.142 ± 0.04 | 0.205 ± 0.0091 | 0.114 ± 0.04 | 0.108 ± 0.039 | 0.116 ± 0.092 | 0.139 ± 0.044
23 | AVLSFVLVRSVV | 0.58 ± 0.052 | 0.619 ± 0.012 | 0.417 ± 0.026 | 0.604 ± 0.017 | 0.399 ± 0.031 | 0.417 ± 0.021 | 0.574 ± 0.0062 | 0.471 ± 0.02
24 | LPPSPPCQSPAL | 0.667 ± 0.021 | 0.716 ± 0.012 | 0.672 ± 0.015 | 0.728 ± 0.012 | 0.681 ± 0.03 | 0.667 ± 0.019 | 0.685 ± 0.013 | 0.743 ± 0.018
25 | SVLALLWVGCWL | 0.355 ± 0.0064 | 0.4238 ± 0.0021 | 0.271 ± 0.045 | 0.478 ± 0.017 | 0.253 ± 0.0065 | 0.265 ± 0.029 | 0.452 ± 0.028 | 0.378 ± 0.055
26 | FPLGAQTWLCLS | 0.645 ± 0.084 | 0.714 ± 0.012 | 0.609 ± 0.018 | 0.729 ± 0.022 | 0.199 ± 0.0021 | 0.24 ± 0.032 | 0.466 ± 0.036 | 0.318 ± 0.0065
27 | FVICGMLVHWMV | 0.479 ± 0.04 | 0.536 ± 0.084 | 0.376 ± 0.028 | 0.58244 ± 0.00049 | 0.321 ± 0.0041 | 0.344 ± 0.02 | 0.5356 ± 0.0023 | 0.434 ± 0.01
28 | EWFFCLGLFRFH | 0.567 ± 0.022 | 0.6045 ± 0.0057 | 0.472 ± 0.044 | 0.6152 ± 0.0061 | 0.208 ± 0.022 | 0.235 ± 0.025 | 0.433 ± 0.00045 | 0.369 ± 0.045
29 | RERRISRIPCLS | 0.594 ± 0.058 | 0.678 ± 0.01 | 0.526 ± 0.018 | 0.6867 ± 0.0014 | 0.174 ± 0.0033 | 0.185 ± 0.035 | 0.362 ± 0.028 | 0.276 ± 0.057
30 | IISPLRLLPLFF | 0.634 ± 0.018 | 0.73 ± 0.013 | 0.61 ± 0.039 | 0.724 ± 0.0088 | 0.271 ± 0.011 | 0.298 ± 0.03 | 0.515 ± 0.0086 | 0.388 ± 0.017
31 | SPSRAGQHLYYP | 0.684 ± 0.028 | 0.7347 ± 0.0032 | 0.64 ± 0.016 | 0.7334 ± 0.0037 | 0.636 ± 0.0095 | 0.662 ± 0.011 | 0.6953 ± 0.0059 | 0.718 ± 0.034
32 | CFYSRTIILEHC | 0.503 ± 0.1 | 0.506 ± 0.0072 | 0.464 ± 0.0086 | 0.5003 ± 0.0025 | 0.23 ± 0.015 | 0.233 ± 0.028 | 0.34 ± 0.015 | 0.328 ± 0.015
33 | GFALGSFMLVLR | 0.0226 ± 0.0077 | 0.0469 ± 0.019 | 0.0861 ± 0.012 | 0.0844 ± 0.0018 | 0.596 ± 0.037 | 0.0702 ± 0.012 | 0.0617 ± 0.0078 | 0.0977 ± 0.0089
34 | VFFRVLVAGCRQ | 0.537 ± 0.04 | 0.618 ± 0.021 | 0.451 ± 0.022 | 0.5761 ± 0.0052 | 0.449 ± 0.0066 | 0.468 ± 0.0052 | 0.568 ± 0.028 | 0.522 ± 0.084
35 | FFGVFIFPVSCR | 0.203 ± 0.013 | 0.226 ± 0.019 | 0.204 ± 0.028 | 0.292 ± 0.01 | 0.174 ± 0.0071 | 0.209 ± 0.032 | 0.291 ± 0.028 | 0.291 ± 0.022
36 | TVILVLFPSPFL | 0.589 ± 0.036 | 0.679 ± 0.012 | 0.472 ± 0.037 | 0.671 ± 0.023 | 0.448 ± 0.014 | 0.484 ± 0.01 | 0.597 ± 0.017 | 0.51 ± 0.021
37 | LLMPLLLHSLVW | 0.354 ± 0.021 | 0.396 ± 0.012 | 0.308 ± 0.019 | 0.455 ± 0.0014 | 0.308 ± 0.0067 | 0.335 ± 0.0096 | 0.434 ± 0.024 | 0.409 ± 0.005
38 | TCRLIQLTVTLH | 0.3115 ± 0.0026 | 0.3774 ± 0.001 | 0.257 ± 0.038 | 0.458 ± 0.0051 | 0.232 ± 0.0034 | 0.253 ± 0.018 | 0.4071 ± 0.0036 | 0.386 ± 0.053
39 | RLLLLLTCIIYI | 0.173 ± 0.006 | 0.219 ± 0.023 | 0.194 ± 0.016 | 0.276 ± 0.052 | 0.183 ± 0.026 | 0.16 ± 0.046 | 0.267 ± 0.032 | 0.256 ± 0.015
